Molecular target: the molecule itself
Experiment: time-resolved fluorescence anisotropy

B1: Dengue virus serotype 2 capsid protein (natural protein)
chain: MNNQRKKARNTPFNMLKRERNRVSTVQQLTKRFSLGMLQGRGPLKLFMALVAFLRFLTIPPTAGILKRWGTIKKSKAINVLRGFRKEIGRMLNILNRRRR
notes: also called DENV C; C protein
B1: binds.
